The record followed here is patent publication US20230242922.

What all share (assay): cell_activity
For data set [1], the target named is FokI TALEN pair (Flavobacterium okeanokoites) (UniProt P14870). As to conditions: by Sanger sequencing.
Data set [2] concerns T1, AN197 TALEN, purified, mPEG-5K-SH PEGylated (synthetic construct).
T1 sequence: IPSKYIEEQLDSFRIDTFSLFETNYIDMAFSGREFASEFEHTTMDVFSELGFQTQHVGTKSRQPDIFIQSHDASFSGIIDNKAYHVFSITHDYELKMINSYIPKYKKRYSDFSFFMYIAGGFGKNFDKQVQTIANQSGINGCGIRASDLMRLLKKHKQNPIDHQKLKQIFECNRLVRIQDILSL
The settings on record: HEK293FT.

Data set [3] concerns T2, AN197 TALEN pair (synthetic construct).
T2 sequence: T1 sequence
As to conditions: primary T cells, GCD.

Sequence of UniProt P14870 (P14870 384-579): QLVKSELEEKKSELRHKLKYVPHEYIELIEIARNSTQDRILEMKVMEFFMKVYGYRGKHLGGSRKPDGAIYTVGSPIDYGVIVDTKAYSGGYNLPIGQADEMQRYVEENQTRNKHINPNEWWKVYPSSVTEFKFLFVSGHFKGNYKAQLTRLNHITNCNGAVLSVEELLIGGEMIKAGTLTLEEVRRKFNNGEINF

As for AAVS1 locus TALEN target, the activity was 100 % editing in data set [1], less than 75 % editing in data set [2] and more than 80 % editing in data set [3].

TIM3 target: the activity in data set [3] is more than 80 % editing. Still for that read-out and setting: then LAG3 target, with more than 80 % editing. With B2M target, the activity in data set [3] is more than 80 % editing. PD-1 target yielded an activity in data set [3] of more than 80 % editing.
